Laboratory results taken from the supplement of paper PMC7877785.
± gives the uncertainty stated by the source.

Test: self-splicing fitness, log relative to wild type (ln ratio); higher = more splicing; Tetrahymena group I intron in knt gene, E. coli kanamycin selection, DiMSum; sequences stand for … in CUCUCU…GGAGGGAAAAGUUAUCAGGCAUGCACCUGGUAGCUAGUCUUUAAACCAAUAGAUUGCAUCGGUUUAAAAGGCAAGACCGUCAAAUUGCGGGAAAGGGGUCAACAGCCGUUCAGUACCAAGUCUCAGGGGAAACUUUGAGAUGGCCUUGCAAAGGGUAUGGUAAUAAGCUGACGGACAUGGUCCUAACCACGCAGCCAAGUCCUAAGUCAACAGAUCUUCUGUUGAUAUGGAUGCAGUUCACAGACUAAAUGUCGGUCGGGGAAGAUGUAUUCUUCUCAUAAGAUAUAGUCGGACCUCUCCUUAAUGGGAGCUAGCGGAUGAAGUGAUGCAACACUGGAGCCGCUGGGAACUAAUUUGUAUGCGAAAGUAUAUUGAUUAGUUUUGGAGUACUCGUGGUCG
Summary of the method: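 Pooled colonies went to amplicon sequencing on an Illumina HiSeq 2500 after six replicate transformations. The plates were LB agar with 100 μg/mL carbenicillin, 50 μM IPTG and 0.2% rhamnose, with or without 25 μg/mL kanamycin, incubated overnight at 37°C or 30°C. The E. coli BL21(DE3) library had all eight P1ex-region intron nucleotides randomised, the intron placed in the knt kanamycin-resistance gene on pET-22b(+). DiMSum fitness is the error-weighted combination of replicate fold changes, kanamycin against none, normalised to wild type.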

Row | Sequence | self-splicing fitness (ln) (30 °C) | self-splicing fitness (ln) (37 °C)
1 | CAGCAGCAAUAUUACGUCUG | -3.11 ± 0.14 | -2.85 ± 0.22
2 | CAGCAGCAAUAUUACGUGUU | -4.61 ± 0.22 | -2.5 ± 0.13
3 | CAGCAGCAAUAUUACGUUUA | -2.11 ± 0.12 | -2.02 ± 0.12
4 | CAGGAGCAAUAUUACGACAA | – | -1.73 ± 0.41
5 | CAGGAGCAAUAUUACGAGUG | -2.51 ± 0.2 | -1.95 ± 0.17
6 | CAGGAGCAAUAUUACGAUCU | – | -2.45 ± 0.45
7 | CAGGAGCAAUAUUACGAUUG | -3.77 ± 0.28 | -2.46 ± 0.23
8 | CAGGAGCAAUAUUACGCAUA | – | -1.73 ± 0.33
9 | CAGGAGCAAUAUUACGGAGG | -2.02 ± 0.095 | -1.21 ± 0.12
10 | CAGGAGCAAUAUUACGGGCU | -4.13 ± 0.39 | -2.17 ± 0.34
11 | CAGGAGCAAUAUUACGGGUU | -4.36 ± 0.25 | -2.99 ± 0.19
12 | CAGGAGCAAUAUUACGUAAU | -3.99 ± 0.47 | -2.78 ± 0.44
13 | CAGGAGCAAUAUUACGUAUA | -4.26 ± 0.34 | -1.62 ± 0.21
14 | CAGGAGCAAUAUUACGUCCG | 0.726 ± 0.21 | 0.304 ± 0.29
15 | CAGGAGCAAUAUUACGUUGG | -2.44 ± 0.14 | -0.863 ± 0.14
16 | CAGUAGCAAUAUUACGAACA | -3.3 ± 0.48 | -2.86 ± 0.41
17 | CAGUAGCAAUAUUACGAAGA | – | -2.1 ± 0.41
18 | CAGUAGCAAUAUUACGAAGG | -1.25 ± 0.12 | -1.8 ± 0.14
19 | CAGUAGCAAUAUUACGAAUG | -1.36 ± 0.1 | -0.492 ± 0.11
20 | CAGUAGCAAUAUUACGACGC | -3.07 ± 0.38 | -0.25 ± 0.25
21 | CAGUAGCAAUAUUACGACGU | -1.15 ± 0.14 | -0.0577 ± 0.18
22 | CAGUAGCAAUAUUACGACUC | -0.076 ± 0.18 | 0.539 ± 0.28
23 | CAGUAGCAAUAUUACGAGAG | -3.95 ± 0.24 | -2.76 ± 0.19
24 | CAGUAGCAAUAUUACGAGCU | -3.07 ± 0.28 | 0.322 ± 0.19
25 | CAGUAGCAAUAUUACGAUGG | -0.609 ± 0.077 | -0.119 ± 0.11

Row | Sequence | self-splicing fitness (ln) (30 °C) | self-splicing fitness (ln) (37 °C)
26 | CAGUAGCAAUAUUACGCAGG | -1.59 ± 0.096 | -0.318 ± 0.11
27 | CAGUAGCAAUAUUACGCGUA | -2.89 ± 0.27 | -1.64 ± 0.19
28 | CAGUAGCAAUAUUACGGAUA | -1.58 ± 0.32 | -2.79 ± 0.38
29 | CAGUAGCAAUAUUACGGGUC | -3.88 ± 0.37 | -1.32 ± 0.24
30 | CAGUAGCAAUAUUACGGGUU | -2.49 ± 0.18 | -1.82 ± 0.2
31 | CAGUAGCAAUAUUACGGUAC | -5 ± 0.45 | -3 ± 0.27
32 | CAGUAGCAAUAUUACGUCAA | -2.64 ± 0.14 | -2.59 ± 0.26
33 | CAGUAGCAAUAUUACGUCGU | -2.6 ± 0.17 | -2.44 ± 0.17
34 | CAGUAGCAAUAUUACGUGAU | -4.22 ± 0.34 | -1.2 ± 0.15
35 | CAGUAGCAAUAUUACGUGCG | -0.0402 ± 0.068 | 0.239 ± 0.088
36 | CAGUAGCAAUAUUACGUGCU | -2.95 ± 0.19 | -1.84 ± 0.3
37 | CAGUAGCAAUAUUACGUGGC | -2.97 ± 0.28 | -2.36 ± 0.29
38 | CAGUAGCAAUAUUACGUUAA | -2.74 ± 0.19 | -3.5 ± 0.23
39 | CAGUAGCAAUAUUACGUUUA | -3.19 ± 0.23 | -3.02 ± 0.25
40 | CAUAAGCAAUAUUACGAAAU | -3.7 ± 0.2 | -2.68 ± 0.22
41 | CAUAAGCAAUAUUACGAAUA | -1.84 ± 0.24 | -2.9 ± 0.43
42 | CAUAAGCAAUAUUACGAAUG | -3.79 ± 0.23 | -2.32 ± 0.19
43 | CAUAAGCAAUAUUACGAGAA | – | -2.27 ± 0.3
44 | CAUAAGCAAUAUUACGAUUA | -1.64 ± 0.14 | -1.4 ± 0.14
45 | CAUAAGCAAUAUUACGCAAA | -2.93 ± 0.44 | -2.46 ± 0.41
46 | CAUAAGCAAUAUUACGCAUC | – | -3.39 ± 0.43
47 | CAUAAGCAAUAUUACGCAUG | -1.55 ± 0.12 | -2.27 ± 0.23
48 | CAUAAGCAAUAUUACGCCAG | -1.42 ± 0.14 | -0.932 ± 0.19
49 | CAUAAGCAAUAUUACGCCGG | -0.252 ± 0.13 | -0.546 ± 0.2
50 | CAUAAGCAAUAUUACGCGAG | -1.99 ± 0.097 | -1.39 ± 0.085

Row | Sequence | self-splicing fitness (ln) (30 °C) | self-splicing fitness (ln) (37 °C)
51 | CAUAAGCAAUAUUACGCGCG | -0.536 ± 0.14 | 0.0409 ± 0.15
52 | CAUAAGCAAUAUUACGCGUU | -3.3 ± 0.15 | -1.55 ± 0.13
53 | CAUAAGCAAUAUUACGCUAG | -3.34 ± 0.16 | -2.4 ± 0.15
54 | CAUAAGCAAUAUUACGCUGU | -3.79 ± 0.27 | -1.05 ± 0.15
55 | CAUAAGCAAUAUUACGGAGA | – | -3.12 ± 0.38
56 | CAUAAGCAAUAUUACGGAUC | – | -1.38 ± 0.23
57 | CAUAAGCAAUAUUACGGCAU | -4.06 ± 0.31 | -1.15 ± 0.2
58 | CAUAAGCAAUAUUACGGCGG | 0.324 ± 0.087 | -0.0169 ± 0.12
59 | CAUAAGCAAUAUUACGGCUA | -1.56 ± 0.13 | -1.51 ± 0.12
60 | CAUAAGCAAUAUUACGGCUC | -2.88 ± 0.44 | -1.88 ± 0.43
61 | CAUAAGCAAUAUUACGGUAC | -2.89 ± 0.19 | -2.14 ± 0.29
62 | CAUAAGCAAUAUUACGGUCA | -2.41 ± 0.24 | -1.89 ± 0.2
63 | CAUAAGCAAUAUUACGUCAC | -3.86 ± 0.29 | –
64 | CAUAAGCAAUAUUACGUGAA | -3.45 ± 0.2 | -2.14 ± 0.18
65 | CAUAAGCAAUAUUACGUGUC | -3.62 ± 0.2 | -2.55 ± 0.17
66 | CAUAAGCAAUAUUACGUUCG | -0.99 ± 0.079 | 0.184 ± 0.09
67 | CAUCAGCAAUAUUACGAAAC | -3.66 ± 0.47 | -3.45 ± 0.32
68 | CAUCAGCAAUAUUACGAACG | 0.463 ± 0.11 | 0.656 ± 0.11
69 | CAUCAGCAAUAUUACGACUG | -0.425 ± 0.084 | -0.238 ± 0.098
70 | CAUCAGCAAUAUUACGAGCG | -0.443 ± 0.059 | 0.466 ± 0.072
71 | CAUCAGCAAUAUUACGAUCA | -0.959 ± 0.11 | -0.294 ± 0.13
72 | CAUCAGCAAUAUUACGAUGG | -0.479 ± 0.057 | -0.173 ± 0.074
73 | CAUCAGCAAUAUUACGAUUG | -1.45 ± 0.054 | -0.782 ± 0.071
74 | CAUCAGCAAUAUUACGCAGA | -2.69 ± 0.21 | -2.86 ± 0.31
75 | CAUCAGCAAUAUUACGCAGG | -0.441 ± 0.062 | -1.15 ± 0.079

Row | Sequence | self-splicing fitness (ln) (30 °C) | self-splicing fitness (ln) (37 °C)
76 | CAUCAGCAAUAUUACGCCAC | -2.77 ± 0.46 | -2.22 ± 0.43
77 | CAUCAGCAAUAUUACGCCAU | -3.98 ± 0.35 | -2.97 ± 0.24
78 | CAUCAGCAAUAUUACGCGCG | 0.0702 ± 0.07 | 0.438 ± 0.084
79 | CAUCAGCAAUAUUACGCUAA | -2.1 ± 0.17 | -1.69 ± 0.16
80 | CAUCAGCAAUAUUACGCUGU | -3.65 ± 0.18 | -1.84 ± 0.15
81 | CAUCAGCAAUAUUACGGAUA | -0.862 ± 0.06 | 0.0386 ± 0.074
82 | CAUCAGCAAUAUUACGGAUU | -0.959 ± 0.062 | -0.143 ± 0.077
83 | CAUCAGCAAUAUUACGGCAC | -3.89 ± 0.24 | -2.56 ± 0.24
84 | CAUCAGCAAUAUUACGGCUU | -2.91 ± 0.14 | -1.75 ± 0.17
85 | CAUCAGCAAUAUUACGGGGG | -1.94 ± 0.084 | -0.816 ± 0.1
86 | CAUCAGCAAUAUUACGGUCU | -2.82 ± 0.1 | -2.22 ± 0.15
87 | CAUCAGCAAUAUUACGUCAC | -3.06 ± 0.15 | -2.68 ± 0.23
88 | CAUCAGCAAUAUUACGUGGA | -3.6 ± 0.19 | -2.05 ± 0.12
89 | CAUCAGCAAUAUUACGUGGC | -4.41 ± 0.27 | -2.72 ± 0.19
90 | CAUCAGCAAUAUUACGUGUA | -1.18 ± 0.083 | -0.43 ± 0.079
91 | CAUCAGCAAUAUUACGUGUU | -2.31 ± 0.12 | -2.79 ± 0.24
92 | CAUCAGCAAUAUUACGUUAC | -4.12 ± 0.39 | -1.92 ± 0.22
93 | CAUCAGCAAUAUUACGUUCU | -3.82 ± 0.2 | -3.32 ± 0.23
94 | CAUCAGCAAUAUUACGUUUG | -1.57 ± 0.064 | -0.71 ± 0.089
95 | CAUGAGCAAUAUUACGACUU | -3.95 ± 0.32 | -3.81 ± 0.36
96 | CAUGAGCAAUAUUACGAGCA | -3.68 ± 0.31 | -2.56 ± 0.23
97 | CAUGAGCAAUAUUACGAUAU | -3.32 ± 0.25 | -2 ± 0.31
98 | CAUGAGCAAUAUUACGAUUC | -3.18 ± 0.21 | -1.66 ± 0.19
